{
  "source": "patent US20170129921A1",
  "about": "(University of California, published 2017)",
  "binders": {"B1": {"name": "Peptide P59, Ac-LIRLWR-OH (peptide)", "peptide": "Ac-LIRLWR-OH", "notes": "Synthetic, computationally designed hexapeptide based on the C-terminus of C5a"}, "B2": {"name": "Human isolated C5a-des Arg (ligand, UniProt P01031 678-750, looked up)", "chain": "TLQKKIEEIAAKYKHSVVKKCCYDGACVNNDETCEQRAARISLGPRCIKAFTECCVVASQLRANISHKDMQLG"}, "B3": {"name": "Peptide P32, Ac-RHYPYWR-OH (peptide)", "peptide": "Ac-RHYPYWR-OH", "notes": "Synthetic, computationally designed heptapeptide based on the C-terminus of C5a"}, "B4": {"name": "Human recombinant C5a (ligand, UniProt P01031 678-751, looked up)", "chain": "TLQKKIEEIAAKYKHSVVKKCCYDGACVNNDETCEQRAARISLGPRCIKAFTECCVVASQLRANISHKDMQLGR", "notes": "also called native C5a"}},
  "key": {"[1]": {"molecular_target": "T1, C5a receptor 1 (human, UniProt P21730 1-350)", "T1 construct": "whole, on cells; Also used here for native C5a1 on human macrophages; also called C5a1; CD88", "T1 sequence (looked up)": "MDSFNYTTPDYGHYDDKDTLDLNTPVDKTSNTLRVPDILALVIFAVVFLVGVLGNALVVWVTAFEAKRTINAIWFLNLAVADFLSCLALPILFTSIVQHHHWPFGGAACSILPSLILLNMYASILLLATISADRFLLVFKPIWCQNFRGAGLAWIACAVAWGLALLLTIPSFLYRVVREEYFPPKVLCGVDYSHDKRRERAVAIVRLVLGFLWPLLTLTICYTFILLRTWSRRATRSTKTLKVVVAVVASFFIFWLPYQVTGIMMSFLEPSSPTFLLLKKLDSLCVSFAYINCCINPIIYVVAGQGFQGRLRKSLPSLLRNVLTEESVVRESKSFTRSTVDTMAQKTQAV", "test": "125I-C5a displacement on C5aR1 membranes"}, "[2]": {"molecular_target": "T2, Human C5a receptor 2 (human, UniProt Q9P296 1-337)", "T2 construct": "whole, on cells; also used here for native C5a2 on human monocyte derived macrophages and for the human C5a2 of the DiscoveRx PathHunter kit; also called C5a2; C5L2", "T2 sequence (Q9P296 whole entry)": "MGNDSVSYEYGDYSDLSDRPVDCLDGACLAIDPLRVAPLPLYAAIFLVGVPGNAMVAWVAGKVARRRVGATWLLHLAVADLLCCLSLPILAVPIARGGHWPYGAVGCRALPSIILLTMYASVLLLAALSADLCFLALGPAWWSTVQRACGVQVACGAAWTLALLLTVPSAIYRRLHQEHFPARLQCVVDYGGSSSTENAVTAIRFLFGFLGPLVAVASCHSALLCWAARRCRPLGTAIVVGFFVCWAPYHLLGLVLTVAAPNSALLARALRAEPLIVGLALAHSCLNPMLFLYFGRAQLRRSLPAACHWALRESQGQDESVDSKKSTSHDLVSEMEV", "test": "125I-C5a displacement, SPA on Flp-In CHO-C5a2 membranes", "procedure": "P32 and P59 were previously shown to have no activity (either as an agonist or antagonist) up to a concentration of 100 μM, when the library was previously screened for activity at C3aR and C5a1²⁷.\n(§1) C5a2 receptor binding studies were performed using a modification of a previously described scintillation proximity assay (SPA) method⁴⁸. Briefly, C5a2 SPA studies were performed in 96-well white isoplates with clear flat bottoms (Perkin Elmer, Waltham, Mass., USA). SPA beads (200 μg/well) were added, following the addition of various concentrations of competing ligands or buffer (6 pM to 500 μM) in a total volume of 80 μL of assay buffer (50 mM Tris-HCl, pH 7.4, 0.5% BSA, 5 mM MgCl₂, 1 mM CaCl₂). ¹²⁵I-C5a (˜20 pM) (specific activity, 2200 Ci mmol⁻¹) (Perkin Elmer) was added to C5a2 membrane preparations (˜2 μg/well). The final reaction volume per well comprised 20 μL of ligand/buffer, 20 μL of SPA beads, 20 μl of membrane and the assay was initiated by the addition of 20 μL of ¹²⁵I-C5a. The plate was then sealed using TopSeal-A (Perkin Elmer) sealing film and incubated with shaking for 1 h at room temperature. Radioligand binding was then assessed for 30 s/well using a 1450 Microbeta scintillation counter (Perkin Elmer)."}, "[3]": {"molecular_target": "T3, C5a2-Venus (UniProt Q9P296 1-337)", "T3 sequence (Q9P296 whole entry)": "as above", "test": "cell-based or functional assay"}, "[4]": {"molecular_target": "T3, C5a2-Venus", "test": "cell-based or functional assay", "remark": "listed apart in the source"}, "[5]": {"molecular_target": "T2, Human C5a receptor 2", "test": "125I-C5a displacement, SPA on Flp-In CHO-C5a2 membranes", "procedure": "To further address this issue, C5a2 SPA was used to test for the binding of C3a or C3a-des arg to C5a2.\nas §1", "remark": "listed apart in the source"}},
  "note": "Read-outs that look alike come from different tables or passages of the source.",
  "data": [
    {"binder": "B1", "values": [
      {"measurement": "Ki", "setting": "[1]", "result": 466, "unit": "µM"},
      {"measurement": "Ki", "setting": "[2]", "result": 48, "unit": "µM"},
      {"measurement": "C5a2-β-arrestin 2 BRET Recruitment (% of C5a)", "setting": "[3]", "result": "52.9 % of C5a"},
      {"measurement": "fold higher efficacy of β-arrestin 2 recruitment than the affinity for C5a2", "setting": "[4]", "result": "~6", "unit": "fold"}
    ]},
    {"binder": "B2", "values": [
      {"measurement": "Ki", "setting": "[5]", "result": 0.0015, "unit": "µM"}
    ]},
    {"binder": "B3", "values": [
      {"measurement": "Ki", "setting": "[1]", "result": 234, "unit": "µM"},
      {"measurement": "Ki", "setting": "[2]", "result": 223, "unit": "µM"},
      {"measurement": "C5a2-β-arrestin 2 BRET Recruitment (% of C5a)", "setting": "[3]", "result": "28.8 % of C5a"},
      {"measurement": "fold higher efficacy of β-arrestin 2 recruitment than the affinity for C5a2", "setting": "[4]", "result": "~37", "unit": "fold"}
    ]},
    {"binder": "B4", "values": [
      {"measurement": "Ki", "setting": "[2]", "result": 0.0013, "unit": "µM"},
      {"measurement": "C5a2-β-arrestin 2 BRET Recruitment (% of C5a)", "setting": "[3]", "result": "100 % of C5a"}
    ]}
  ]
}
